Sequences and labels used below:
B8: MERS-CoV S protein receptor binding domain (RBD), England1 strain, soluble (other)
chain: EAKPSGSVVEQAEGVECDFSPLLSGTPPQVYNFKRLVFTNCNYNLTKLLSLFSVNDFTCSQISPAAIASNCYSSLILDYFSYPLSMKSDLSVSSAGPISQFNYKQSFSNPTCLILATVPHNLTTITKPLKYSYINKCSRFLSDDRTEVPQLVNANQYSPCVSIVPSTVWEDGDYYRKQLSPLEGGGWLVASGSTVAMTEQLQMGFGITVQYGTDTNSVCPKLEFANDTKIASQLGNCVEY

In test [1] the target is T1, MERS-CoV Spike (S) glycoprotein, England1 strain, full length (MERS-CoV, England1 strain, UniProt K9N5Q8 19-1353).
T1 sequence: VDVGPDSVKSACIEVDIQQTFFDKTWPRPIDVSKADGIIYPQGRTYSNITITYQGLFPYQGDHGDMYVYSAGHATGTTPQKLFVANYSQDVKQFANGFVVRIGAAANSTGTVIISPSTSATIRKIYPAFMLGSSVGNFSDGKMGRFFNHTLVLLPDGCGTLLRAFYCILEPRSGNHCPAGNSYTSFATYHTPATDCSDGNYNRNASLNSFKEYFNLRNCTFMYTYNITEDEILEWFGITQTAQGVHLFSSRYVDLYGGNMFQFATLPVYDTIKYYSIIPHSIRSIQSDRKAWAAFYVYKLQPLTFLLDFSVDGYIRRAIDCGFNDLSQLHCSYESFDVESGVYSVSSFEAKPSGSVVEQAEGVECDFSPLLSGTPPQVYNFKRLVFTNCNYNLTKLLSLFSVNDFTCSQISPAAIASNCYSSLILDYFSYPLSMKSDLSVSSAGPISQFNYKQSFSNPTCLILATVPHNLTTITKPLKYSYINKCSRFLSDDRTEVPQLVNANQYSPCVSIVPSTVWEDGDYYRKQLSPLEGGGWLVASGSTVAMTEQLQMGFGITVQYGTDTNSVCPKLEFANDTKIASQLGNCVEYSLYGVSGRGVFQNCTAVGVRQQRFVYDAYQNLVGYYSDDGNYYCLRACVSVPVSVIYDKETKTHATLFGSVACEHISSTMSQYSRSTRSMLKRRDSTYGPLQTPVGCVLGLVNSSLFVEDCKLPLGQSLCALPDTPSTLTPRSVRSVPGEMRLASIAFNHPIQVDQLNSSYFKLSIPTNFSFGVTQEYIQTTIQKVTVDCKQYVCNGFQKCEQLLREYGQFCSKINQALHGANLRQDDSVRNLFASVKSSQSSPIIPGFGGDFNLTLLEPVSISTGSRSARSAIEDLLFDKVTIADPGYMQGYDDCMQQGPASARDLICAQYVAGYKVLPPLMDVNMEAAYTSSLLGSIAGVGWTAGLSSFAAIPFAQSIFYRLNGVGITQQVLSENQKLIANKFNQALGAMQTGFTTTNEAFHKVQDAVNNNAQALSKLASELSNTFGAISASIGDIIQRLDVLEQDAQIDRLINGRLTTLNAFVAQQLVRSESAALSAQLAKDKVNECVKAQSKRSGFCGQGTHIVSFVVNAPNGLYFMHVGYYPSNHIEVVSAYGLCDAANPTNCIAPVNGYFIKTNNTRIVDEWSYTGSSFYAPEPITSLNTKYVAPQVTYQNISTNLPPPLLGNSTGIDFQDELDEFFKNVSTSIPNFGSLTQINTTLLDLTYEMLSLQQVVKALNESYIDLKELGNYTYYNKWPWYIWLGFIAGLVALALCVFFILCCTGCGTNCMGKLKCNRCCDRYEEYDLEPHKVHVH
As to the kind of experiment: cell-based or functional assay.

In test [2] the target is T2, MERS-CoV S1 protein, England1 strain, soluble (MERS-CoV, England1 strain, UniProt K9N5Q8 19-752).
T2 sequence: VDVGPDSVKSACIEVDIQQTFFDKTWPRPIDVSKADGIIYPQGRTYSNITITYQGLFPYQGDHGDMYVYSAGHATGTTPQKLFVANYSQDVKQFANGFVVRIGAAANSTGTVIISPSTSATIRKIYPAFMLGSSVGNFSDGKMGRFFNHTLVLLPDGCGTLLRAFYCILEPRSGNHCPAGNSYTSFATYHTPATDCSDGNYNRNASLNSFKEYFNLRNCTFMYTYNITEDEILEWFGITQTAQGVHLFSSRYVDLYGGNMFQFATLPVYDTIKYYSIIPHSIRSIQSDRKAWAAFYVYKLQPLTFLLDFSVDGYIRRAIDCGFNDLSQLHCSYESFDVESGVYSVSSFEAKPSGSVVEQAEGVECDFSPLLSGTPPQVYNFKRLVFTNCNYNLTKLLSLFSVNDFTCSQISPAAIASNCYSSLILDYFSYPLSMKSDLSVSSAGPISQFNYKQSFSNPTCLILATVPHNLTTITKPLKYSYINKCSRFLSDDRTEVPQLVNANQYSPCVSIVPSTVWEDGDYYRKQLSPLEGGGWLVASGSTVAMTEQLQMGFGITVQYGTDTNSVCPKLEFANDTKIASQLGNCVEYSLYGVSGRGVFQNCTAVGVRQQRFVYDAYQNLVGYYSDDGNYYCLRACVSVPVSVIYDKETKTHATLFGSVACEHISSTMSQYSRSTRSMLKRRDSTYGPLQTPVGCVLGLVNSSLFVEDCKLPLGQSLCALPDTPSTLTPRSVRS

For test [3], the target named is T2, MERS-CoV S1 protein, England1 strain, …. As to the kind of experiment: ELISA; x axis 'Protein concentration (µg/ml)'.
The target of test [4] is B8. As to the kind of experiment: ELISA, hybridoma supernatant. In general terms: ELISA stands for enzyme-linked immunosorbent assay.
Test [5] addresses B8. As to the kind of experiment: ELISA on RBD coated plates.
The target of test [6] is T2, MERS-CoV S1 protein, England1 strain, …. As to the kind of experiment: ELISA on RBD, S1 or S2 coated plates.
Test [7] deals with B8. As to the kind of experiment: ELISA; x axis 'Protein concentration (µg/ml)'.
Test [8] addresses T2, MERS-CoV S1 protein, England1 strain, …. As to the kind of experiment: ELISA, hybridoma supernatant.
Test [9] addresses T1, MERS-CoV Spike (S) glycoprotein, …. As to the kind of experiment: cell-based or functional assay. The source holds these as a separate data set.
The target of test [10] is B8. As to the kind of experiment: ELISA specificity (FIG. 22), told only by this label.
The target in test [11] is B8.
Test [12] concerns the target B8. As to the kind of experiment: ELISA on RBD, mAb titrated 0.0032-10 µg/ml.
The target of the next test is D12 antibody. As to the kind of experiment: cell-based or functional assay.

Data on eight molecules can be found in patent US20180244756A1 (US Dept. of Health and Human Services, published 2018).

D12 antibody, sequence (VH, as listed by the source, chain 1 of 2): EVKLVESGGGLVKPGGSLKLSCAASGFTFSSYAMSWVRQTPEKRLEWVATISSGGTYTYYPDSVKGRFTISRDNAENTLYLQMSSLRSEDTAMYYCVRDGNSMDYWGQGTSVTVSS
D12 antibody, sequence (VL, as listed by the source, chain 2 of 2): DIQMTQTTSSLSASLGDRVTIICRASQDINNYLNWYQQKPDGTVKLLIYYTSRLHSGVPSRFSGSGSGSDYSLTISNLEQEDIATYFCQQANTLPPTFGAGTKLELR

B1: G2 antibody (antibody, V domains shown)
VH: QVQLQQSGGELVKPGASVKLSCKTSGFTFSSSYISWLKQKPGQSLEWIAWIYAGTGGTEYNQKFTGKAQVTVDTSSSTAYMQFSSLTTEDSAIYYCARGGSSFAMDYWGQGTSVTVSS
VL: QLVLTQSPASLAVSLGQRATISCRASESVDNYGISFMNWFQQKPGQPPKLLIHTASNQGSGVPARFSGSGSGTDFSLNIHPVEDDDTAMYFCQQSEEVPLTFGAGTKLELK
In test [1], B1 registered an IC50 of 0.013 µg/mL and a concentration for an effect of 80% (IC80) of 0.35 µg/mL. Moreover, in [2], the dissociation constant (Kd) stood at 1.69 nM, the koff stood at 0.000188 s⁻¹ and the kon was determined as 111000 M⁻¹ s⁻¹. In addition, the “EC50 (read off the curve)” value in test [3] is approximately 0.09 µg/mL. Besides, in test [4], the “ELISA (unit not given)” value turned out to be 0.04 and the binding result was “no binding (tested: not given (supernatant))”.

B2: FIB_B2 NHP antibody (antibody, V domains shown)
VH: QVQLQESGPGLVKPSETLSLTCAVSGGSISSNYWYWIRQSPVKGLEWIGYIYGGSGGTEYNPSLKSRVTISTDTSKNQFFLKLSSVTAADTAVYYCARSFYSWNGESWGQGVVVTVSS
VL: DIQMSQTPSSLSASVGDRVTITCRASQGINDYLNWYQQKPGKAPKLLIYYGNSLASGVPSRFSGSGSGTDFSLTISSLQPEDFATYYCQQGDSFPLTFGGGTKVDIK
Turning to B2, the binding result in [5] is given as “no binding”; in test [6], “binds”.

B3: G4 antibody (antibody, V domains shown)
VH: QVQLQQSGPELVRPGVSVKISCKGSGYTFTDYAIHWVKQSHAKSLEWIGVFSTYYGNTNYNQKFKGRATMTVDKSSSTAYMELARLTSEDSAIYYCARKSYYVDYVDAMDYWGQGTSVTVSS
VL: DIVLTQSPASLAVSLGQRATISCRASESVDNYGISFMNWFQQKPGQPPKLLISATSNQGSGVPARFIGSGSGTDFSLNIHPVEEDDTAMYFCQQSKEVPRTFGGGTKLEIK
For B3, the IC50 in [1] was determined as 0.133 µg/mL. This molecule also registered an IC80 in test [1] of 0.806 µg/mL. In addition, the binding result in test [3] and in [7] was “no binding (tested: 10 µg/ml)” throughout. The “ELISA (unit not given)” value in test [8] was determined as 0.06; in [4], 0.05. Also, the “pseudotyped MERS-CoV (England1) virus neutralization potency” value in test [9] was approximately 10 fold lower.

B4: FIB_H1 NHP antibody (antibody, V domains shown)
VH: EVQLVQSGAEVKKPGASVKVSCKASGHIFTSYVINWLQEAPGQGFEWMGGIHPGNGGRDYAQKFQGRVTITADMSTSTVYMELRSLRSEDMAVYYCAASSGSYGVSSLDVWGRGVLVTVSS
VL: QSALTQPPSLSASPGASARLPCTLSSDLSVGSKNMYWYQQKPGSAPRLFLYYYSDSDKQLGPGVPNRVSGSKETSSNTAFLLISGLQPEDEADYYCQVYDSSANWVFGGGTRLTVL
In the case of B4, the binding result in test [5] was “no binding”.

B5: A10 human antibody (antibody, V domains shown)
VH: QVQLVQSGAEVKKPGSSVKVSCKASGGTFSTYALSWVRQAPGQGLEWMGGIIPIFGTANYAQKFQGRVTITADESTSTAYMELNSLRSEDTAVYYCARGSRSSSSAEYFQHWGQGTLVTVSS
VL: QSALTQPRSVSGSPGQSVTISCTGTSSDVGGYNYVSWYQQHPGKAPKLMIYDVSKRPSGVPDRFSGSKSGNTASLTISGLQAEDEADYYCCSYAGSYTLEVVFGGGTKLTVL
With B5, in [10], the binding result is given as “no binding”.

B6: A2 human antibody (antibody, V domains shown)
VH: QVQLVESGGGLVKPGGSLRLSCAASGFTFSDYYMSWIRQAPGKGLEWVSYISSSGSTIYYADSVKGRFTISRDNAKNSLYLQMNSLRAEDTAVYYCARVGLGSGWYDWFDPWGQGTLVTVSS
VL: QSALTQPPSVSGAPGQRVTISCTGSSSNIGASYDVHWYQHLPGTAPKLLIYGNTNRPSGVPDRFSGSKSGTSASLAITGLQAEDEADYYCQSYDSSLSGVVFSGGTKLTVL
Regarding B6, the binding result in test [10] is on record as “no binding”.

B7: F11 antibody (antibody, V domains shown)
VH: EVKLEESGGGLVKPGGSLKLSCAASGFTFSRYAMSWVRQTPEKRLEWVATINNGGSYSYYPDSVKGRLTISRDNAKNTLYLQMSSLRSEDTALYYCARHYDYDGYYYTMDFWGQGTSVTVSS
VL: DVLMTQIPLSLPVSLGDQASISCRSSQSIVHSNGNTYLEWYLQKPGQSPKPLIYKVSNRISGVPDRFSGSGSGTDFTLKISRVEAEDLGVYYCFQGSHVPYTFGGGTNLEIKR
B7: in test [1], the IC50 worked out at 0.008 µg/mL and the IC80 came to 0.052 µg/mL. In test [2], this molecule yielded a Kd of 3.49 nM, an off-rate (koff) of 0.000391 s⁻¹ and a kon of 112000 M⁻¹ s⁻¹. Besides, in [11], the Kd came out at 114 nM, the koff worked out at 0.0079 s⁻¹ and the kon is 69100 M⁻¹ s⁻¹. Also, the “ELISA (unit not given)” value in test [8] worked out at 2.67. In addition, in test [12], the “EC50 (read off the curve)” value is approximately 0.05 µg/mL.

With B8, the “IC50 (read off the curve)” value in the test with D12 antibody was approximately 2 µg/mL.

As usually defined, the IC50 is the concentration needed to halve the response being measured. A higher IC50 goes with weaker potency. Broadly, the IC80 is the concentration at which the effect reaches the 80% level. Read a high IC80 as a need for much substance. Broadly, the Kd is the free concentration of one partner at which half of the binding sites on the other are occupied at equilibrium, for simple one-to-one binding. Read a high Kd as lower affinity. For orientation: koff means a measure of how fast the partners let go of each other. Higher therefore signals a short-lived complex. Broadly, the kon is the rate constant with which the complex forms. Usually EC50 (read off the curve) stands for the concentration that produces a half-maximal response. Low readings indicate higher potency in that assay, high ones lower potency in that assay.
